Experimental data as given in the supplement of paper PMC10899765.

Experiments:
Conditions in all cases: 20 nM; 72 h
[1] = tested on: MCF10A; assay: percent viability (nuclei count relative to siNT); higher = more viable cells
Description: (§1)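 After 72 h, cells were fixed and stained with Hoechst and anti-fibrillarin, and nucleoli per nucleus were counted with CellProfiler. Values are plate-adjusted percent effect for the one-nucleolus and 5+ nucleoli phenotypes, normalised to siNT (0%) and to the positive controls siNOL11 or siKIF11 (100%), as the mean of biological triplicates. Percent viability is the nuclei count relative to siNT.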

[2] = tested on: MCF10A; assay: 5+ nucleoli phenotype percent effect (relative to siNT 0% and siKIF11 100%); higher = more cells with five or more nucleoli
Description: as §1

[3] = tested on: MCF10A; assay: one-nucleolus phenotype percent effect (relative to siNT 0% and siNOL11 100%); higher = more cells with one nucleolus (ribosome biogenesis inhibition)
Description: as §1

Sequence	percent viability [1] [%]	5+ nucleoli phenotype percent effect [2] [%]	one-nucleolus phenotype percent effect [3] [%]
UGGGCGUAUCUGUAUGCUA [hsa-miR-585]	39.1	-5.6	41.1
ACUGGGCAGGGCUGUGGUGAGU [hsa-miR-6860]	50.7	-5.42	-5.92
AGCUUCCAUGACUCCUGAUGGA [hsa-miR-2115-5p]	137	-3.91	-7.01
CGUCCCACCCCCCACUCCUGU [hsa-miR-4433-5p]	40.9	25.6	-1.75
UCACAGUGGUCUCUGGGAUUAU [hsa-miR-216a-3p]	29.5	-17.5	8.32
UGGGGAGCGGCCCCCGGGUGGG [hsa-miR-1343-5p]	86	48.5	-31.1
ACCAGCCUGUGUCCACCUCCAG [hsa-miR-6849-3p]	46	-31	13.6
GAGACAGGUUCAUGCUGCUA [hsa-miR-4524b-3p]	25.8	-32.4	37.3
UUGGAGGCGUGGGUUUU [hsa-miR-4443]	20.9	-29.8	61.2
CUGGGGGUGGGGGGCUGGGCGU [hsa-miR-6803-5p]	86.6	16	-13.5
AAGGGGGAAGGAAACAUGGAGA [hsa-miR-4716-3p]	21.3	-6.04	21.6
UGUGGGUGGGAAGGACUGGAUU [hsa-miR-6748-5p]	22.6	-25.6	30.1
CUCAAACCGGCUGUGCCUGUGG [hsa-miR-6715b-3p]	62.7	-11.8	10
UAUUCAUUUAUCCCCAGCCUACA [hsa-miR-664a-3p]	121	26	-21
CACCUUUGUGUCCCCAUCCUGCA [hsa-miR-6782-3p]	51.1	49.2	-13.1
UAAUUGCUUCCAUGUUU [hsa-miR-302f]	65.5	-31.2	22.1
CCCUGGGGUUCUGAGGACAUG [hsa-miR-6852-5p]	32.3	29	8.28
UGGGAUCCAGACAGUGGGAGAA [hsa-miR-4713-3p]	26	16.3	-1.28
AACCACUUUCUUUGCUCAUCCA [hsa-miR-1255b-2-3p]	32.1	-17.2	7.09
ACAGAUUCGAUUCUAGGGGAAU [hsa-miR-10b-3p]	53.5	-9.13	15.6
CCACCUCCCCUGCAAACGUCCA [hsa-miR-1306-5p]	35	33	-25.8
ACUGGCUAGGGAAAAUGAUUGGAU [hsa-miR-664a-5p]	47.9	8.84	16.3
AACUCUGUCUUCACUCAUGAGU [hsa-miR-3664-5p]	60.5	6.12	-2.78
GAGUGCCUUCUUUUGGAGCGUU [hsa-miR-515-3p]	50.3	9.82	-6.31
